Experimental findings from PMC3159478 (Nucleic Acids Research, 2011) are described below.

The target of series [1] is Q9UXG1. Put plainly: FRET or BRET. (Bioluminescence resonance energy transfer reports proximity on the nanometre scale.)
Series [2] deals with Q9UXG1. In words: FRET or BRET. This is another data set of the same source.
The target of series [3] is Q9UXG1. Put plainly: FRET or BRET. The source holds these as a separate data set.
For series [4], the target named is Q9UXG1. In words: FRET or BRET. This is another data set of the same source.
For series [5], the target named is Q9UXG1. In words: FRET or BRET. The source holds these as a separate data set.
In the next series the target is T1, SsoMCM WT (Sulfolobus solfataricus, UniProt Q9UXG1 1-686).
T1 sequence: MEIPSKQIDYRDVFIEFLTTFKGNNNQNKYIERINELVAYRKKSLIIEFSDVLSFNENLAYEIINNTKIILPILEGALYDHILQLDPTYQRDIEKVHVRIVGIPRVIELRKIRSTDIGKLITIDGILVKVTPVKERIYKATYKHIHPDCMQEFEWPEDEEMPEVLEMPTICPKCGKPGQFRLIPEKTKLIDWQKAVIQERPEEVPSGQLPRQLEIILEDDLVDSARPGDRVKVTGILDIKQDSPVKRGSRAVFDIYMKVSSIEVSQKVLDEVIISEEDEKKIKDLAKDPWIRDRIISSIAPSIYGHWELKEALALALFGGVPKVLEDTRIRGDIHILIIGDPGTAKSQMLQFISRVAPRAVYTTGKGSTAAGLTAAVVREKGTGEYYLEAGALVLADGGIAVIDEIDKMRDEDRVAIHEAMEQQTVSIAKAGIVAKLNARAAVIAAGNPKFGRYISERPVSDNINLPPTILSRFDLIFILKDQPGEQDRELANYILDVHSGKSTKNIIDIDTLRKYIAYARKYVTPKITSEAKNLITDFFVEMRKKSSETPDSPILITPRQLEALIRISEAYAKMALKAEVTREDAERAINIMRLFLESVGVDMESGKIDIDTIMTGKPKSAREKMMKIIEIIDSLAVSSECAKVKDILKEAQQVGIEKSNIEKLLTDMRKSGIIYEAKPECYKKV
In words: fluorescence anisotropy.

In the next series the target is T2, SsoMCM K323A (Sulfolobus solfataricus, UniProt Q9UXG1 1-686, K323A).
T2 sequence: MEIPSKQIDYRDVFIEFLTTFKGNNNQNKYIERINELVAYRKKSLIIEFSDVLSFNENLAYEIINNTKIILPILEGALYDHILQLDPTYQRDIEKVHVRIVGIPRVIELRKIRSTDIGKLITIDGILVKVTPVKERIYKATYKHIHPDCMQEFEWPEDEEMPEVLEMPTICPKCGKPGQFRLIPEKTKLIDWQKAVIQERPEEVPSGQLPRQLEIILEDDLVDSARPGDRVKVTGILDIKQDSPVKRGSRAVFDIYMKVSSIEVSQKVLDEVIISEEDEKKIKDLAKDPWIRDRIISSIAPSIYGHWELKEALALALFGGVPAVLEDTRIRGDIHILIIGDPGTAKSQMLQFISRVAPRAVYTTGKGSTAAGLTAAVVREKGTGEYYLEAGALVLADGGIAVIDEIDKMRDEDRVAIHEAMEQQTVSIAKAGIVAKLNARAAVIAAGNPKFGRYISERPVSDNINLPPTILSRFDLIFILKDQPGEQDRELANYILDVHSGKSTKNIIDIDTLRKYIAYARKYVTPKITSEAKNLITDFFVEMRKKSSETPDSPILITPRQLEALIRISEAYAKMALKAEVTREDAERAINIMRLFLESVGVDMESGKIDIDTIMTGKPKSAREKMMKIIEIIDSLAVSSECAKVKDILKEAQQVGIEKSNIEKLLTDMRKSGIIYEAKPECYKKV
In words: fluorescence anisotropy. A general note: Fluorescence polarisation rises when a labelled molecule tumbles more slowly, as on binding a larger partner.

Another series has as its target T3, SsoMCM K323A/R440A (Sulfolobus solfataricus, UniProt Q9UXG1 1-686, K323A;R440A).
T3 sequence: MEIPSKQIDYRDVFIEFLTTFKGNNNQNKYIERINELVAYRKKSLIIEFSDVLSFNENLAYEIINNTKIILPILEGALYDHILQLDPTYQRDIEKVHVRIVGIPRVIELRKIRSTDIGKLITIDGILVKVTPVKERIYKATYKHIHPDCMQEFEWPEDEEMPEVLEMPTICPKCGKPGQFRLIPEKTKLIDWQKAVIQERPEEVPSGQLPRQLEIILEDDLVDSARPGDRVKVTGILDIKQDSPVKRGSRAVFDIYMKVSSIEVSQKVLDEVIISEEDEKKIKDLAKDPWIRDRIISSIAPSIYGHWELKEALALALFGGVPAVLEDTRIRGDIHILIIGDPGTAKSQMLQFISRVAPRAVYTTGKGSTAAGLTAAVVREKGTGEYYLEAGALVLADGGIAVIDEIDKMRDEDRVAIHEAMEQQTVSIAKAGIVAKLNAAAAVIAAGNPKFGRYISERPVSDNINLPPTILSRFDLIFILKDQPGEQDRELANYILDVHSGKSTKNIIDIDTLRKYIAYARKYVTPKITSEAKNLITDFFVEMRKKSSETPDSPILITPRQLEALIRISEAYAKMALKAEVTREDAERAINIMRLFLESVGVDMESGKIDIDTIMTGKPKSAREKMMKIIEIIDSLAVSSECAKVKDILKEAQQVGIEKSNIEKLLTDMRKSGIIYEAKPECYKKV
In words: fluorescence anisotropy.

Another series has as its target T4, SsoMCM R440A (Sulfolobus solfataricus, UniProt Q9UXG1 1-686, R440A).
T4 sequence: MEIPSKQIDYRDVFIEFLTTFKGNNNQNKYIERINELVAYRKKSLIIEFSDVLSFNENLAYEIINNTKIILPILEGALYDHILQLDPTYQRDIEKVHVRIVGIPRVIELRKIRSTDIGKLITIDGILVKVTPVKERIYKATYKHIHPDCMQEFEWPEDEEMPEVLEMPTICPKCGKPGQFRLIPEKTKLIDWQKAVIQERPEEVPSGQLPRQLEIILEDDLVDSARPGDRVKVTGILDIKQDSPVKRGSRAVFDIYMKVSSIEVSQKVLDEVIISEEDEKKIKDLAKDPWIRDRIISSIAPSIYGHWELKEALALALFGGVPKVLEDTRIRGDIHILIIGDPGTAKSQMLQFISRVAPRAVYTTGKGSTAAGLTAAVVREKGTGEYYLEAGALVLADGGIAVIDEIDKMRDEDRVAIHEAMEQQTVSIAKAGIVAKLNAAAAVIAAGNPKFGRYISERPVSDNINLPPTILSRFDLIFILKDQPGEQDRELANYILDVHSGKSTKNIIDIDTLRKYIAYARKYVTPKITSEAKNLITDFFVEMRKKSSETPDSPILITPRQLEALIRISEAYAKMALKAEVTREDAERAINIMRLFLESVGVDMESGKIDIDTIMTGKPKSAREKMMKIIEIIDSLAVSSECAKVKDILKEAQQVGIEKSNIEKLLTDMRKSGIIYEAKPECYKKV
Put plainly: fluorescence anisotropy.

Where two headings read alike, the source gives them in different places.

As a reminder, the Kd is the equilibrium constant for the complex coming apart.

B1: Wild-type SsoMCM fluorescently labelled at the N-terminus with Alexa 488 (donor) or Alexa 555 (acceptor) (protein)
chain: MEIPSKQIDYRDVFIEFLTTFKGNNNQNKYIERINELVAYRKKSLIIEFSDVLSFNENLAYEIINNTKIILPILEGALYDHILQLDPTYQRDIEKVHVRIVGIPRVIELRKIRSTDIGKLITIDGILVKVTPVKERIYKATYKHIHPDCMQEFEWPEDEEMPEVLEMPTICPKCGKPGQFRLIPEKTKLIDWQKAVIQERPEEVPSGQLPRQLEIILEDDLVDSARPGDRVKVTGILDIKQDSPVKRGSRAVFDIYMKVSSIEVSQKVLDEVIISEEDEKKIKDLAKDPWIRDRIISSIAPSIYGHWELKEALALALFGGVPKVLEDTRIRGDIHILIIGDPGTAKSQMLQFISRVAPRAVYTTGKGSTAAGLTAAVVREKGTGEYYLEAGALVLADGGIAVIDEIDKMRDEDRVAIHEAMEQQTVSIAKAGIVAKLNARAAVIAAGNPKFGRYISERPVSDNINLPPTILSRFDLIFILKDQPGEQDRELANYILDVHSGKSTKNIIDIDTLRKYIAYARKYVTPKITSEAKNLITDFFVEMRKKSSETPDSPILITPRQLEALIRISEAYAKMALKAEVTREDAERAINIMRLFLESVGVDMESGKIDIDTIMTGKPKSAREKMMKIIEIIDSLAVSSECAKVKDILKEAQQVGIEKSNIEKLLTDMRKSGIIYEAKPECYKKV
Regarding B1, the kobs1 of MCM subunit exchange (first exponential, direct exchange of subunits) with Q9UXG1 [1] was 0.0474 s⁻¹; with Q9UXG1 [2] it was 0.192 s⁻¹; with Q9UXG1 [3], 0.196 s⁻¹; with Q9UXG1 [4], 0.0556 s⁻¹; with Q9UXG1 [5] it was 0.125 ± 0.005 min⁻¹.

B2: fork 5'-tail-50 nt / 3'-tail-30 nt (mixed)
DNA 1: CACCTCTCCCTACGCTTCCCACCCACCCCGACCGGCATCTGCTATGGTACGCTGAGCGAGAGTAGC
DNA 2: CGATGAGAGCCGATGAGAGCCGATGAGAGCGAGTCGCATGGTATCGTCTAGCCGGTCGGGGTGGGTGGGAAGCGTAGGGAGAGGTG
As to B2, the Kd was determined as 75 ± 13 nM in the series with SsoMCM WT, 93 ± 10 nM with SsoMCM K323A, 90 ± 9 nM with SsoMCM K323A/R440A and 92 ± 13 nM in the series with SsoMCM R440A.
